Results published in article PMC9175631 (Journal of Virology, 2022).
Where a chain is given by its changes, count along the chain named.

B1: anti-ZIKV MAb 11-3 (antibody, V domains shown)
VH: QEQLVESGGGLVQPEGSLTITCTGSGFSFSSRFYMCWVRQAPGKGLEWIACIYGGSSGSTYYASWAKGRFTISKTSSTTVTLQISSLTAADTATYFCARGGSTAAAGFNLWGPGTLLTVSS
VL: DVVMTQTPASVSATVGGTVTIKCQASEDIYNLLAWYQQKPGQPPKLLIYYASTLASGVPSRFKGSGSGTEFTLTISDLECADAATYYCQCNDYGGTYVPNAFGGGTEVVVK
notes: recombinant rabbit IgG
B2: anti-ZIKV MAb 242-3 (antibody, V domains shown)
VH: QAQLEESGGDLVKPEGSLTLTCTASGFSFTDRHYMCWIRQAPGKGLEWIACVYPGSSGSTYYASWARGRFTISKTSSTTVTLRMTSLTAADTATYFCARSSYPDSSGYSYGMDLWGPGTLVTVSS
VL: DIVMTQTPASVEAAVGGTVTIKCQASQNINSNLAWYQQKPGQRPKFLMYLTSKLASGVPSRFRGSGSGTQFTLTISDLECADAATYYCQTYYDISNYGYAFGGGTEVVVK
notes: recombinant rabbit IgG; 99% amino acid identity with 270-12
B3: anti-ZIKV MAb 270-12 (antibody, V domains shown)
VH: B2 VH with I38V
VL: B2 VL with N28D
notes: source: 293-6E cells, cotransfected, purified (MabSelect SuRe protein A)
B4: anti-ZIKV MAb 78-2 (antibody, V domains shown)
VH: QQQLVESGGGLVKPGASLTLNCKASGLDFSTNSYMCWVRQAPGKGLEWIACIYVGDSSEIYYASWAKGRFTISKTSSTTVTLQMTSLTAADTATYFCARDLPSFTAPYAGYLRLWGPGTLVTVSS
VL: QPVLTQPPSLSASLGTTARLTCTLRTGYNVGDYPLLWLQRVPGRPPRYLLTYHTEEFKHQGSGVHSRFSGSKDASENAGVLSISGLQPEDEANYYCYTVHATESSLHYVFGGGTQLTVT
B5: anti-ZIKV MAb 289-3 (antibody, V domains shown)
VH: QEELEESGGDLVKPGASLTLTCKASGFSFSSGAYICWVRQAPGKGPEWIACIYTGDGRTYYANWAKRRFTISSSSSTTVALEMPSLTDADTATYFCARAIAVGAGYGVGNYFTLWGPGTLVTVSS
VL: DIVMTQTPSSVSAAVGGTVTINCHASENIYGYLSWYQQKPGQPPKLLIYKASTLASGVPSRFKGSGAGTQFTLTITALECADAATYYCQSYYTSSSNADGSENAFGGGTEVVVE
B6: framework region (FWR) amino acid reverted anti-ZIKV MAb 102-1 (antibody, V domains shown)
VH: QSLEESGGDLVKPGASLTLTCTASGFSFNSNYWMCWVRQAPGKGLEWIACVFGGIHVTYYASWAKGRFTISKTSSTTVTLQMTSLTAADTATYFCIISTGGSHRFNLWGPGTLVTVSS
VL: DVVMTQTPSPVSAAVGGTVTINCQASESIYTYLSWYQQKPGQPPKLLIYRASTLESGVPSRFKGSGSGTQFTLTISDLECADAATYYCQATDVGGSGRGAFGGGTEVVVE
notes: rabbit IgG; 9 FWRH and 9 FWRL residues reverted to the germ line
B7: anti-ZIKV MAb 306-2 (antibody, V domains shown)
VH: QSLEESGGDLVKPGASLTLTCTASGFDFSDRYYMCWVRQAPGKGLEWIGCIYVGSGDTYYASWAKGRFTISRTSSTTVTLQMTRLTAADTATYFCARHPGTYFTLWGPGTLVTVSS
VL: DVVMTQTPSSVSAAVGGTVTINCQASQNIVNNLAWYQQRPGQPPKLLIYDTSTLASGVPSRFKGSGSGTEFTLTISDLECADAATYYCQTYYYYNKIINGFGGGTEVVVK
B8: framework region (FWR) amino acid reverted anti-ZIKV MAb 306-2 (antibody, V domains shown)
VH: B7 VH with G49A, R72K, R84S
VL: B7 VL with S10P, A34S, R39K, T53N, G66R
notes: rabbit IgG; 3 FWRH and 5 FWRL residues reverted to the germ line; also called allele reverted MAb 306-2; MAb 306-2 with amino acid reverted to allele

Columns and labels:
[1] = target: T1, ZIKV virus-like particles (Suriname Z1106033) (Zika virus, Suriname Z1106033, UniProt A0A0U4DG08, strain); assay: BLI; Octet HTX; MAb 0.1 to 0.3 μg/mL amine-coupled to AR2G biosensor; ZIKV-VLP 0.1 to 1.0 μg/mL or ZIKV E protein 0.2 to 2 μg/mL in 1x kinetic buffer; association 900 s, dissociation 1,200 s; Langmuir 1:1 model; average of two runs; details: both partners purified
T1 construct: also called ZIKV-VLP; VLP; source: bought: The Native Antigen Company

[2] = target: T2, ZIKV E protein (Suriname Z1106033) (Zika virus, Suriname Z1106033, UniProt A0A0U4DG08, strain); assay: as above; details: both partners purified
T2 construct: also called soluble ZIKV E protein

[3] = target: ZIKV prM/E (ZIKV SPH2015), E E162A (Zika virus (ZIKV SPH2015)); assay: flow cytometry on cells
[4] = target: ZIKV prM/E (ZIKV SPH2015), E G100A (Zika virus (ZIKV SPH2015)); assay: flow cytometry on cells
[5] = target: ZIKV prM/E (ZIKV SPH2015), E G182A (Zika virus (ZIKV SPH2015)); assay: flow cytometry on cells
[6] = target: ZIKV prM/E (ZIKV SPH2015), E G302A (Zika virus (ZIKV SPH2015)); assay: flow cytometry on cells
[7] = target: ZIKV prM/E (ZIKV SPH2015), E G337A (Zika virus (ZIKV SPH2015)); assay: flow cytometry on cells
[8] = target: ZIKV prM/E (ZIKV SPH2015), E H398A (Zika virus (ZIKV SPH2015)); assay: flow cytometry on cells
[9] = target: ZIKV prM/E (ZIKV SPH2015), E H399A (Zika virus (ZIKV SPH2015)); assay: flow cytometry on cells
[10] = target: ZIKV prM/E (ZIKV SPH2015), E I317A (Zika virus (ZIKV SPH2015)); assay: flow cytometry on cells
[11] = target: ZIKV prM/E (ZIKV SPH2015), E K301A (Zika virus (ZIKV SPH2015)); assay: flow cytometry on cells
[12] = target: ZIKV prM/E (ZIKV SPH2015), E L107A (Zika virus (ZIKV SPH2015)); assay: flow cytometry on cells
[13] = target: ZIKV prM/E (ZIKV SPH2015), E S368A (Zika virus (ZIKV SPH2015)); assay: flow cytometry on cells
[14] = target: ZIKV prM/E (ZIKV SPH2015), E T309A (Zika virus (ZIKV SPH2015)); assay: flow cytometry on cells
[15] = target: ZIKV prM/E (ZIKV SPH2015), E T335A (Zika virus (ZIKV SPH2015)); assay: flow cytometry on cells
[16] = target: ZIKV prM/E (ZIKV SPH2015), E T369A (Zika virus (ZIKV SPH2015)); assay: flow cytometry on cells
[17] = target: ZIKV prM/E (ZIKV SPH2015), E T397A (Zika virus (ZIKV SPH2015)); assay: flow cytometry on cells
[18] = target: ZIKV prM/E (ZIKV SPH2015), prM D57A (Zika virus (ZIKV SPH2015)); assay: flow cytometry on cells
[19] = target: ZIKV prM/E (ZIKV SPH2015), prM E58A (Zika virus (ZIKV SPH2015)); assay: flow cytometry on cells
[20] = target: ZIKV prM/E (ZIKV SPH2015), prM G59A (Zika virus (ZIKV SPH2015)); assay: flow cytometry on cells
[21] = target: ZIKV prM/E (ZIKV SPH2015), prM V60A (Zika virus (ZIKV SPH2015)); assay: flow cytometry on cells
[22] = target: T3, wild-type ZIKV prM/E (ZIKV SPH2015) (Zika virus, SPH2015, UniProt A0A0U3FSM8, strain); assay: flow cytometry on cells; details: one partner purified
T3 construct: also called WT prM/E; wild-type prM/E; source: HEK-293T, transfected, cells fixed and permeabilised

[23] = target: T2, ZIKV E protein (Suriname Z1106033); assay: cell-based or functional assay
[24] = target: ZIKV prM/E (ZIKV SPH2015), E E370A (Zika virus (ZIKV SPH2015)); assay: flow cytometry on cells
[25] = target: T2, ZIKV E protein (Suriname Z1106033); assay: BLI; Octet HTX; 2 μg/mL MAb captured on protein G biosensor in 0.1% BSA-PBST; 3 μg/mL ZIKV E protein associated 600 s, dissociated 900 s; details: both partners purified
[26] = target: T1, ZIKV virus-like particles (Suriname …); assay: Luminex bead assay; VLP conjugated to MagPlex beads (EDC/NHS); 10,000 beads/mL with 10 μg/mL to 0.0002 ng/mL MAb, 90 min, room temperature, 1% BSA in D-PBS; detected with phycoerythrin-labeled anti-rabbit IgG; details: both partners purified

Row | Binder | Kd [1] | koff [1] | kon [1] | Kd [2] | koff [2] | kon [2] | binding result [22] | other [23] | also measured
1 | B1 | 0.57 nM | 7.13e-05 s⁻¹ | 125000 M⁻¹ s⁻¹ | 1.53 nM | 0.000137 s⁻¹ | 89800 M⁻¹ s⁻¹ | – | – | –
2 | B2 | 0.24 nM | 4.93e-05 s⁻¹ | 202000 M⁻¹ s⁻¹ | 1.22 nM | 8.16e-05 s⁻¹ | 67100 M⁻¹ s⁻¹ | binds | 42.8 ng/mL | antibody binding reactivity (% WT) [3]: 79.6 % WT; antibody binding reactivity (% WT) [4]: 70.3 % WT; antibody binding reactivity (% WT) [5]: 85.6 % WT; antibody binding reactivity (% WT) [6]: 68.3 % WT; antibody binding reactivity (% WT) [7]: 48.3 % WT; antibody binding reactivity (% WT) [8]: 77.2 % WT; antibody binding reactivity (% WT) [9]: 127 % WT; antibody binding reactivity (% WT) [10]: 112 % WT; antibody binding reactivity (% WT) [11]: 78.7 % WT; antibody binding reactivity (% WT) [12]: 122 % WT; antibody binding reactivity (% WT) [13]: 89.1 % WT; antibody binding reactivity (% WT) [14]: 104 % WT; antibody binding reactivity (% WT) [15]: 36.2 % WT; antibody binding reactivity (% WT) [16]: 34.5 % WT; antibody binding reactivity (% WT) [17]: 111 % WT; antibody binding reactivity (% WT) [18]: 91.9 % WT; antibody binding reactivity (% WT) [19]: 96.8 % WT; antibody binding reactivity (% WT) [20]: 94.9 % WT; antibody binding reactivity (% WT) [21]: 97.2 % WT
3 | B3 | 0.31 nM | 4.27e-05 s⁻¹ | 140000 M⁻¹ s⁻¹ | 1.04 nM | 9.8e-05 s⁻¹ | 94500 M⁻¹ s⁻¹ | binds | – | MNT titer, IC50 (microneutralization of ZIKV PRVABC59 on Vero cells) [23]: 0.0372 µg/mL
4 | B4 | 0.19 nM | 4.28e-05 s⁻¹ | 221000 M⁻¹ s⁻¹ | 0.1 nM | 1.94e-05 s⁻¹ | 192000 M⁻¹ s⁻¹ | binds | – | antibody binding reactivity (% WT) [3]: 101 % WT; antibody binding reactivity (% WT) [24]: 92.7 % WT; antibody binding reactivity (% WT) [5]: 110 % WT; antibody binding reactivity (% WT) [6]: 69.2 % WT; antibody binding reactivity (% WT) [7]: 59.7 % WT; antibody binding reactivity (% WT) [8]: 92.9 % WT; antibody binding reactivity (% WT) [9]: 97.2 % WT; antibody binding reactivity (% WT) [10]: 61.2 % WT; antibody binding reactivity (% WT) [11]: 82.5 % WT; antibody binding reactivity (% WT) [13]: 87.5 % WT; antibody binding reactivity (% WT) [14]: 96.2 % WT; antibody binding reactivity (% WT) [15]: 71.6 % WT; antibody binding reactivity (% WT) [16]: 113 % WT; antibody binding reactivity (% WT) [17]: 147 % WT; antibody binding reactivity (% WT) [18]: 123 % WT; antibody binding reactivity (% WT) [19]: 130 % WT; antibody binding reactivity (% WT) [20]: 117 % WT; antibody binding reactivity (% WT) [21]: 113 % WT
5 | B5 | 0.3 nM | 4.58e-05 s⁻¹ | 155000 M⁻¹ s⁻¹ | 0.29 nM | 3.68e-05 s⁻¹ | 129000 M⁻¹ s⁻¹ | binds | 7.8 ng/mL | –
6 | B6 | – | – | – | – | – | – | – | – | binding result [25]: binds; binding result [26]: binds
7 | B7 | 0.4 nM | 6.34e-05 s⁻¹ | 160000 M⁻¹ s⁻¹ | 0.17 nM | 2.04e-05 s⁻¹ | 117000 M⁻¹ s⁻¹ | binds | 10500 ng/mL | –
8 | B8 | – | – | – | – | – | – | – | – | binding result [25]: binds; binding result [26]: binds
